“Also recorded” adds a separate entry of the source.

Assay [1] concerns SNU-5 cells. Kind of assay: CellTiter-Glo luminescent cell viability assay. It is filed as cell-based, human. Conditions: SNU-5, 72 hrs; mAb 10 μg/mL, SU11274 5 μM. On the procedure: (§1) In order to determine if these antibodies have any physiological effects on tumour cells, 10 μg/mL of mAb was added to SNU-5 cells. […] This indicates SU11274 mode of mechanism is by activation of caspase which in turn result in apoptosis of SNU-5 tumour cells.
(§2) CellTiter-Glo® luminescent cell viability assay and Caspase-Glo® 3/7 Assay (Promega, U.S.A.) were used to determine cell viability and caspase activation respectively. SNU-5 cells (1×10^5 cells) were seeded in each 96-well and treated for 72 hrs before analysis. Cell viability and caspase activation were performed according to manufacturer's protocol. Luminescence was read using the EnVision plate reader (PerkinElmer, U.S.A.).
(In general: In ATP-based viability assays light output follows the ATP content of the culture.)

The test system of assay [2] is SNU-5 cells. Description: Annexin V staining (cell death). The format is cell-based, human.
Assay [3] relates to SNU-5 cells. Description: Immunofluorescence of antibody internalisation. The format is cell-based, human. Conditions: SNU-5, 10 μg/mL mAb. On the procedure:
In order to determine if mAb 2 and 13 were internalised into the cell upon antibody binding, SNU-5 cells were incubated with 10 μg/mL of anti-α-chain monoclonal antibody. Monoclonal antibody treated cells were fixed and permeablised. Bound and internalised antibody was detected by anti-mouse Alexa Fluor®488-conjugated secondary antibody. Antibody localisation was observed by confocal microscopy.
10 μg/mL of anti-α-chain monoclonal antibody were incubated with live SNU-5 cells for 1 hr at 4° C. or 37° C. Antibody-treated cells were washed once with PBS and deposited onto polylysine-coated slides (Thermo Scientific, #5991056) using the Thermo Shandon Cytospin 3 Cytofuge (Thermo Scientific) at 800 rpm for 5 mins and fixed immediately in 4% paraformaldehyde. Cells were then blocked and permeablised in PBS containing 0.4% Triton X-100 and 5% BSA. Bound anti-α-chain c-Met antibodies were detected using anti-mouse Alexa Fluor®488-conjugated secondary antibody. Phallodin was added together with the secondary antibodies. Cells were washed before staining with 4′,6′-diamidino-2-phenylindole (DAPI) and mounted with Hydromount (National Diagnostics, U.S.A.) containing 2.5% DABCO (1,4-Diazabicyclo-[2.2.2]octane) (Sigma-Aldrich) as an anti-bleaching agent Immunofluorescence was observed using Nikon Eclipse E600 microscope.

Assay [4] deals with caspase activation in SNU-5 cells. Description: Caspase-Glo 3/7 caspase activation assay. It is filed as cell-based, human. To be noted: SNU-5, 72 hrs; mAb 10 μg/mL, SU11274 5 μM. On the procedure: as §1, §2
In assay [5] the test system is SNU-5 cells. Description: Cell growth by cell count (ADAM cell counter). The format is cell-based, human. Conditions: SNU-5, 10 μg/mL mAb, 72 hours post treatment. On the procedure: as §1
Cells were seeded and treated with anti-α-chain c-Met monoclonal antibodies for 72 hrs. Cells were harvested and counted using the automated ADAM cell counter (Digital Bio, Korea).

Assay [6] relates to c-Met α-chain peptides. Description: Pepscan ELISA-based epitope mapping. It is filed as binding, human. Also on record: mAb 2 binding to peptide O27: dose or concentration left out as unconfirmed. Conditions: absorbance at 450 nm. On the procedure:
(§3) Identifying the region of c-Met bound by the antibody is important in determining whether the antibody might be able to block c-Met from binding to its ligand, HGF. Using an ELISA-based assay (Pepscan), synthesised peptides were added to strepatvidin-coated plates and antibody binding to their respective epitopes was determined colorimetrically. The peptides were consecutive overlapping peptides that span the entire c-Met α-chain.
(§4) Peptides that were linked to biotin by an SGSG linker sequence at the N-terminus were synthesised by Mimotopes (Australia). Peptides for Pepscan: Peptides that span the entire α-chain of c-Met were synthesised. A total of fifty-five peptides with consecutive, overlapping sequences were synthesised. […]
(§5) Variations of peptides O28 and O29, where each amino acid residue was sequentially substituted for an alanine residue, were synthesised. […] Colour change was monitored by eye and the reaction was stopped by adding 100 mM sulphuric acid. Absorbance was read at 450 nm in a microplate reader (SPECTRAmax PLUS^384, Molecular Device, U.S.A.). […] Computer imaging of the epitopes were analysed by PyMol (DeLano Scientific LLC, U.S.A.) software.
(§6) Pepscan analysis was used to determine the region of c-Met α-chain bound by mAb 2. […] Binding of the antibody was detected by colorimetric assay and analysed by absorbance reading at […].
(In an ELISA, binding on a coated surface is turned into a signal by an enzyme label.)

In assay [7] the target is T1, c-Met α-chain peptides (Homo sapiens, UniProt P08581).
T1 construct: consecutive overlapping peptides that span the entire c-Met α-chain; purchased Mimotopes (Australia); host or cells: chemical synthesis
Description: Pepscan ELISA-based epitope mapping. The format is binding. Also on record: mAb 2 binding to peptide O27: dose or concentration left out as unconfirmed. To be noted: absorbance at 450 nm. On the procedure: as §3, §4, §5, §6

Assay [8] concerns the target T2, native c-Met on live SNU-5 cells (Homo sapiens, UniProt P08581).
T2 construct: native c-Met expressed on the cell surface of SNU-5 cells; host or cells: SNU-5
Description: Flow cytometry of antibody binding to live SNU-5 cells. To be noted: 1 μg/mL mAb, FITC secondary antibody. On the procedure:
Flow cytometry was used to determine if our monoclonal antibodies could bind to native c-Met on live cells. SNU-5 cells were incubated with 1 μg/mL of monoclonal antibody. Binding of anti-α-chain c-Met monoclonal antibodies to native c-Met expressed on the cell surface of SNU-5 cells was detected using anti-mouse secondary antibody conjugated with FITC dye. T47D, a human breast cancer cell line expressing low levels of c-Met, was used in this assay to determine if the antibodies bind non-specifically to the cell surface.
SNU-5 cells (1×10^6 cells) were washed once in cold PBS before blocking in 1% BSA/PBS. Cells were washed twice before incubating with anti-α-chain c-Met monoclonal antibodies. 1 μg/mL anti-α-chain monoclonal antibodies were used. Cells were incubated with goat anti-mouse IgG FITC-conjugated secondary antibodies (Invitrogen) and finally resuspended in 1% BSA/PBS. Flow cytometry was performed using Becton Dickinson (U.S.A.) FACScan. Cell Quest (Becton Dickinson) and FlowJo (Tree Star Inc., U.S.A.) software was used for data analysis.
In general terms: Flow cytometry measures light scatter and fluorescence of single cells or particles in a stream.

T2 sequence (P08581 25-1390): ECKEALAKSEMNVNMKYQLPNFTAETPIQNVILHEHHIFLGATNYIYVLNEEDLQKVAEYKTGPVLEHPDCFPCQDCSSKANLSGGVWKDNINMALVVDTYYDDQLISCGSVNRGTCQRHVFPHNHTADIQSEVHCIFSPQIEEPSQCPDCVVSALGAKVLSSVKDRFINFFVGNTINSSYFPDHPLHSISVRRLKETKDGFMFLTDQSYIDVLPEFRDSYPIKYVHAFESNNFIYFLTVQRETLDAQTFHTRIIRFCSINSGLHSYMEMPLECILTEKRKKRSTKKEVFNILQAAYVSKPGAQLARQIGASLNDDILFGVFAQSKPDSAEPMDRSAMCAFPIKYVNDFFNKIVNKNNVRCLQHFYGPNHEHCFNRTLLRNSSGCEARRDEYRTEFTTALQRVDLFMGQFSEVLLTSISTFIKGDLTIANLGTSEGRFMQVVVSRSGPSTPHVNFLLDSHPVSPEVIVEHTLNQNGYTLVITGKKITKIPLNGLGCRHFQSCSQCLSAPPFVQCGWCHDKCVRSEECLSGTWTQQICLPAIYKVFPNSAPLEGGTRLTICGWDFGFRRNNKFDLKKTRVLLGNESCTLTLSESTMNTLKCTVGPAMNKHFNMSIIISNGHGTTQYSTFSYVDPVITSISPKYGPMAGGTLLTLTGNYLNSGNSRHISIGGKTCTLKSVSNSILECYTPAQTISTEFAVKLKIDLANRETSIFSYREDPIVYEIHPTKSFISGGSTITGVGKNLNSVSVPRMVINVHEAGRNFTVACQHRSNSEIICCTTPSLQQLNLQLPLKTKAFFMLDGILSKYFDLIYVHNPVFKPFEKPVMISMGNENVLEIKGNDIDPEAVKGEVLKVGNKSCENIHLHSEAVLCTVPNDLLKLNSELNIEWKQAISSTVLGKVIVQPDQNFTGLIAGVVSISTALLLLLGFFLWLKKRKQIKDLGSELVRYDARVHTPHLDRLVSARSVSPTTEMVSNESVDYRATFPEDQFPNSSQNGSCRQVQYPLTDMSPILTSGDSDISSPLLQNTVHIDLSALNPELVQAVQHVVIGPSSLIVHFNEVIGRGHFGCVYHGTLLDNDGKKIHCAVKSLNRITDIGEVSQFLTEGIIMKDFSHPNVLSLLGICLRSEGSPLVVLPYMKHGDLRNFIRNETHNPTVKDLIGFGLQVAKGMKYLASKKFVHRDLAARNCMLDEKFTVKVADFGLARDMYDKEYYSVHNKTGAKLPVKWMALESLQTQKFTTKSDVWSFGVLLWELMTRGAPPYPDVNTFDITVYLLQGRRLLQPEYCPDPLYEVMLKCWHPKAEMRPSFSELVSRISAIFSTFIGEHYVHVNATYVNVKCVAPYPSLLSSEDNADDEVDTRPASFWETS

B1: mAb 2: murine bivalent anti-α-chain c-Met monoclonal antibody, IgG1, kappa; CDRs SEQ ID NO: 2-7; epitope IEE and CPDC (antibody, listed as Homo sapiens)
heavy: QVQLKESGGGLVQPGGSLTLSCATSGFTFTDHYMSWVRQPPGKALEWLAFIRNKAKGYTTEYNASVRGRFTISRDNSQNIVYLQMNTLRTEDSATYYCARDGVGIAYWGQTLVTVSAAKTTPPSVYPLAP
light: SIVMTQSPLSLPVSLGDQASISCRSSQSLENINGNTYKNWYFQKPGQSPQLLIYRVSNRVSGVLDRFSGSGSGTDFTLKITRVEAEDLGVYFCLQVTHVPWTFGGGTKLEIKRADAAPTKSIS
In the case of B1, the cell viability entry in the assay with SNU-5 cells [1] is “reduced cell viability”. In addition, the “cell death (annexin V staining)” value with SNU-5 cells [2] is “do not cause cell death”. The “internalisation into the cell” value in the assay on SNU-5 cells [3] was “internalised upon binding to c-Met; also recorded: internalised into the tumour cell”. Also, the “antibody localisation at 4° C.” value in the assay with SNU-5 cells [3] (1 hr, 4° C.) was “localised on the cell membrane with diffused cytoplasmic staining”. Moreover, the “antibody localisation at 37° C.” value in the assay on SNU-5 cells [3] (1 hr, 37° C.) is listed as “increase staining was observed in the cytoplasm”. In addition, in assay [4], the caspase activation result was “reduced caspase activation; also recorded: do not activate caspase activation”. The “cell growth (cell count)” value with SNU-5 cells [5] was “strongest cell growth reduction; also recorded: reduction of SNU-5 cell growth; also recorded: most effective in reducing cell proliferation”. In the assay with c-Met α-chain peptides [6], the “mAb 2 binding to peptides O28 and O29” value is “equal affinity; also recorded: no binding preference”. In the assay with c-Met α-chain peptides [7], the “mAb 2 binding to peptide O27” value was “does not bind”. In assay [8], the “binding to native c-Met (fluorescence intensity)” value was “strongest fluorescence intensity; also recorded: strongest binding; also recorded: highest fluorescence staining; also recorded: high affinity and specificity; also recorded: strongly”.

(Values after patent publication US9994644B2, “mAB 2 anti-Met antibody” (Agency for Science, Technology and Research, priority 2013, dated 2018).)
